Assay [1] is described as follows: Protein-lipid overlay assay, sulfatides. The class given is binding. As to conditions: Sphingolipid strips, GST-Dab2 PTB. As to the method: Membrane strips (SphingoStrips™) spotted with 100 pmol of sphingolipids were purchased from Echelon Research Laboratories. Membrane strips were incubated with 0.1 μg/ml of the Dab2 PTB domain or its mutants in 20 mM Tris-HCl (pH 8.0), 150 mM NaCl, 0.1% Tween-20 and 3% fatty acid-free bovine serum albumin overnight at 4° C. Following four washes with the same buffer, proteins bound to the membrane strips were probed with rabbit anti-GST antibody (Santa Cruz Biotech). Donkey anti rabbit-horse radish peroxidase (HRP) antibody was obtained from GE Healthcare. Detection was carried out using ECL reagent (Pierce). Also, lipid strips were prepared by spotting 1 μl of either sulfatides or PtdIns(4,5)P2 dissolved in chloroform:methanol:water (1:2:0.8 and 65:35:8, respectively) onto Hybond-C extra membranes (GE Healthcare) and protein binding was monitored as described above. Bound protein was quantified using the AlphaImager program and binding was calculated as a percentage of GST-PTB binding to 100 pmoles of spotted lipid.

The nature of assay [2]: Liposome-binding assay, PtdIns(4,5)P2 liposomes. As to conditions: liposomes with PtdIns(4,5)P2. As for the experimental part: Lipid stocks including sulfatides, PE, PS, and PtdIns(4,5)P2 were dissolved in chloroform:methanol:water (1:2;0.8, 65:35:8, 65:35:4 and 65:35:8, respectively), whereas cholesterol and PC were dissolved in chloroform:methanol (1:1). Sulfatides liposomes were prepared in a weight ratio of 1:1:1:4 of PC:PE:cholesterol:sulfatides. PtdIns(4,5)P2 liposomes were prepared in a percent ratio of 50:20:10:10:10 of PC:PE:PS:cholesterol:PtdIns(4,5)P2. Controls were prepared by adjusting the ratios with PC. Lipid films were generated by lyophilization overnight and hydrated in 20 mM Tris-HCl (pH 6.8), 100 mM NaCl, 2 mM dithiothreitol (DTT) at 1 mg/mL and freeze-thawed 3 times. Liposomes were sonicated and further pelleted and suspended in 4 mg/mL. Ten μg of protein were incubated with 125 μg of total lipids for 20 min at RT. Liposome-bound and free-protein samples were separated by centrifugation and analyzed by SDS-PAGE. Bands were quantified using AlphaImager, and the percentage of total protein each fraction contained was calculated from the total protein.

The next assay relates to Human washed platelets. Put plainly: Platelet adhesion assay. The assay is classed as cell-based. As to conditions: 1.9 μM, TRAP. As to the method: Human washed platelets were incubated with BSA, Dab2 PTB or Dab2 PTB^4M (1.9 μM each) for 5 min at room temperature in the presence of 0.25 g/L fibrinogen. Aggregation was initiated by the addition of 10 μM TRAP, and reactions were incubated 20 min at 37° C. Samples were fixed with 3.7% formaldehyde in PBS, stained with Wright stain, and photographed. Wright stain was eluted with 20% ethanol, and absorbance was quantified at 415 nm.

A further assay concerns Washed platelets. Nature of the assay: Platelet aggregation under flow assay (microfluidics channel). The class given is cell-based, human. As to conditions: 10 μM, with sulfatide liposomes, shear rate 70 s^−1. As for the experimental part: (§1) The microfluidic device consisted in a simple straight channel 500 μm wide, 50 μm deep and 3.62 cm long. A silicon master stamp was fabricated on a <100> silicon substrate following a previously described process (Ross et al. Ann. Rev. Med. 1987, 38:71-79). Flow was driven using a micro-syringe pump (Cole-Parmer) with a 1 mL syringe connected to the channel inlet by 30 cm of Cole-Parmer gauge 20 Teflon tubing. After priming the system with the sample, the pump was set to 0.05 mL/h (equivalent to an average velocity of 0.55 mm/sec in the channel), which is in the range of in vivo blood velocity (0.1-1.5 mm/sec (9)) and causes a shear rate of 70 sec−1. This flow rate was maintained for 1 min prior to the experiments. Platelets flowing through the channel were monitored using an inverted light microscope (DMI 6000B, Leica Microsystems) equipped with a digital camera (DFC420, Leica Microsystems).
Platelet aggregation is mediated by αIIbβ3 integrin interactions with fibrinogen and fibrin linking platelets together (Furie et al., J. Clin. Invest. 2005; 115 (12): 3355-3362; and Andrews et al., Thromb Res. 2004; 114:447-453). P-selectin links aggregated platelets together stabilizing clot formation (Merten 2001). Sulfatides stimulate increased levels of both αIIbβ3 integrin and P-selectin expression on platelets (Merten 2005). […]

Assay [3] has as its system platelet and leukocyte mixtures. Nature of the assay: Platelet-leukocyte aggregation under flow. The class given is cell-based, human. As to conditions: 10 μM, with sulfatide liposomes. As to the method: as §1
To quantify the ability of N-PTB to block platelet-leukocyte binding under physiological flow conditions, platelet and leukocyte mixtures were flown through a microfluidics device, as described above, and aggregation was measured using light microscopy. Untreated cell suspensions ([…]) were flown for 10 minutes and the channel was scanned for leukocyte adhesion and inclusion into platelet aggregates and representative pictures were taken (FIG. 18A-B).

The source of these data is US20100285583A1, “COMPOUNDS AND METHODS FOR INHIBITING PLATELET AGGREGATION” (priority 2009, published 2010).

B1: N-PTB: N-terminal phosphotyrosine binding domain (residues 1-241) of human Disabled-2 (Dab2), expressed as GST-fusion in E. coli (protein)
chain: MSNEVETSATNGQPDQQAAPKAPSKKEKKKGPEKTDEYLLARFKGDGVKYKAKLIGIDDVPDARGDKMSQDSMMKLKGMAARGRSQGQHKQRIWVNISLSGIKIIDEKTGVIEHEHPVNKISFIARDVTDNRAFGYVCGGEGQHQFFAIKTGQQAEPLVVDLKDLFQVIYNVKKKEEEKKKIEEASKAVENGSEALMILDDQTNKLKSGVDQMDLFGDMSTPPDLNSPTESKDILLVDLNS
As to B1, the binding to sphingolipids entry in assay [1] was “preferentially bound to sulfatides”. Also, the “PtdIns(4,5)P2 binding” value in assay [2] is listed as “bound to PtdIns(4,5)P2-containing liposomes”. Also, the “effect on platelet adhesion to fibrinogen” value in the assay on Human washed platelets was “did not significantly affect platelet adhesion to fibrinogen”. Besides, the “inhibition of sulfatide induced platelet aggregation under flow” value in the assay with Washed platelets was “returned to the size of untreated platelets”; in the assay with Washed platelets (listed as N-PTB^4M), “limited inhibition of platelet aggregate size but not adhesion”. Besides, the “effect on leukocyte adhesion and platelet-leukocyte aggregates under flow” value was “great reduction in observed leukocyte adhesion as well as platelet-leukocyte aggregates” in assay [3]; “unable to affect the adhesion and aggregation of leukocytes” in assay [3] (listed as N-PTB^4M).
